Values quoted from earlier work as cited in article PMC3022542.
Where two headings read alike, the source gives them in different places.

Legend:
[1] = target: importin α5 (Homo sapiens) (UniProt P52294); test: isothermal titration calorimetry
[2] = target: importin α5 (Homo sapiens) (UniProt P52294); test: isothermal titration calorimetry; remark: listed apart in the source

UniProt P52294, sequence (P52294 whole entry): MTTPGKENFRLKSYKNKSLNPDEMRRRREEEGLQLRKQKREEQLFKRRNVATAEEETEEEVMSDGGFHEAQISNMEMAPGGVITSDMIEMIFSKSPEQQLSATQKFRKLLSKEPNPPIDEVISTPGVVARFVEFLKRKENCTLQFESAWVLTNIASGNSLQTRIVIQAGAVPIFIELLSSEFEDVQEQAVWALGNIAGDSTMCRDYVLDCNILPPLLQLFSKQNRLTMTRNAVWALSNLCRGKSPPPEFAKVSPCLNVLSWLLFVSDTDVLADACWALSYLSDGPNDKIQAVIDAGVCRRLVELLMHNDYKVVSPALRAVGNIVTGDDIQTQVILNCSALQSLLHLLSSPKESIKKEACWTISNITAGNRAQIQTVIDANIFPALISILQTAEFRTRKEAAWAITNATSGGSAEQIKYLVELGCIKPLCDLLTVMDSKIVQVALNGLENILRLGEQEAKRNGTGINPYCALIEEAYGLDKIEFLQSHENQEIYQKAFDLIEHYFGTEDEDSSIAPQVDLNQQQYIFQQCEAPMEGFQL

## EBNA-1 NLS peptide NLS (from UniProt P03211)
[1]
  Kd: 3 µM
[2]
  Kd: 60 µM
